Measurements taken from PMC7142073, “Acclimation of bacterial cell state for high-throughput enzyme engineering using a DmpR-dependent transcriptional activation system” (Scientific Reports, 2020).

Substrate: N[C@@H](Cc1ccc(O)cc1)C(=O)O
Assay: purified protein
Format: biochemical, Symbiobacterium sp. SC-1
Settings: 50 mM potassium phosphate, 50 µM PLP; pH 8.0; 60.0 °C

B1: thermostable TPL (TTPL) (Symbiobacterium sp. SC-1) (protein)
chain: MQRPWAEPYKIKAVEPIRMTTREYREQAIREAGYNTFLLRSEDVYIDLLTDSGTNAMSDRQWGALMMGDEAYAGARSFFRLEEAVREIYGFKYVVPTHQGRGAEHLISRILIKPGDYIPGNMYFTTTRTHQELQGGTFVDVIIDEAHDPQANHPFKGNVDIAKFEALIDRVGADKIPYINVALTVNMAGGQPVSMANLREVRKVCDRHGIRMWSDATRAVENAYFIKEREEGYQDKPVREILKEMMSYFDGCTMSGKKDCLVNIGGFLAMNEEWILQKAREQVVIFEGMPTYGGLAGRDMEAIAQGIYEMVDDDYIAHRIHQVRYLGEQLLEAGIPIVQPIGGHAVFLDARAFLPHIPQDQFPAQALAAALYVDSGVRAMERGIVSAGRNPQTGEHNYPKLELVRLTIPRRVYTDRHMDVVAYSVKHLWKERDTIRGLRMVYEPPTLRFFTARFEPIS
notes: His-tagged, pSHCE plasmid, expressed in E. coli DH5alpha with pGESS; cloning primer starts … (M-Q-R-P)
Km: 270 ± 10 µM | kcat: 0.15 ± 0.01 s⁻¹ | kcat/Km: 550 ± 10 M⁻¹ s⁻¹
